The source of these data is IntAct's records for PubMed 19914239.

The chains are these.
B1: Folliculin (Rattus norvegicus (Rat)), Q76JQ2 (parent)
chain: MNAIVALCHFCELHGPRTLFCTEVLHAPLPQGAGSGDSPGQVEQAEEEEGGIQMSSRVRAHSPAEGASTDSSSPGPKKSDMCEGCRSLAVGHPGYISHDKETSIKYVSHQHPNHPQLFSIVRQACVRSLSCEVCPGREGPIFFGDEQHGFVFSHTFFIKDSLARGFQRWYSIIAIMMDRIYLINSWPFLLGKIRGIISELQGKALKVFEAEQFGCPQRAQRMNTAFTPFLHQRNGNAARSLTSLTSDDNLWACLHTSFAWLLKACGSRLTEKLLEGAPTEDTLVQMEKLADLEEESESWDNSEAEEEEKAPATAEGAEGRELASCPTESSFLSACGSWQPPKLSVFKSLRHMRQVLGAPSFRMLAWHVLMGNQVIWKSRDVNLVHSAFEVLRTMLPVGCVRIIPYSSQYEEAYRCNFLGLSPPVPIPAHVLASEFVVVVEVHTATRSNPHPAGCEDDQSLSKYEFVVTSGSPVAADRVGPTILNKMEAALTNQNLSVDVVDQCLVCLKEEWMNKVKVLFKFTKVDSRPKEDTQKLLSVLGASEEDNVKLLKFWMTGLSKTYKSHLMSTVRSPTAAESRN

The variants in one assay derive from B1. The settings on record: with aapk1_rat Prkaa1, P54645.
Chain of aapk1_rat Prkaa1, P54645 (P54645 whole entry): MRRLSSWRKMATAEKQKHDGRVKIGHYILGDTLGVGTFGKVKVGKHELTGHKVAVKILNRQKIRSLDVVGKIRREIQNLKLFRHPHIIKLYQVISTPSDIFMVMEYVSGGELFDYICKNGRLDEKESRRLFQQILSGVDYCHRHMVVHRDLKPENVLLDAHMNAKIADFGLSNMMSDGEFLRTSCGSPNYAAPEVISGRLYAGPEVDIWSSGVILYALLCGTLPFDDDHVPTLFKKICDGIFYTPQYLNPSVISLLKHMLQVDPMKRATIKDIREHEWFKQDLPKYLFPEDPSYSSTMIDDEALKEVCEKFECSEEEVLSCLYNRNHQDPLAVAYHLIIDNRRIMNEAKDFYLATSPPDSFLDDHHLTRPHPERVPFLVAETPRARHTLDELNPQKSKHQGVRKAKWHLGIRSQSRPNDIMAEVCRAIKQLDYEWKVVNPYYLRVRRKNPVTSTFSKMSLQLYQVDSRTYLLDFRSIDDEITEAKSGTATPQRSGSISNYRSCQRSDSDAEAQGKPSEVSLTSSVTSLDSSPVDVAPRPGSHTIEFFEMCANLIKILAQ
As for S62A, the “effect of a mutation on the interaction” value was “decreasing interaction”.

Variants of B1 are the subject of the next assay. The following applies: with aapk1_rat Prkaa1, P54645. The source holds these as a separate data set.
Take S62D: the “effect of a mutation on the interaction” value was “increasing interaction”.
